Experimental data: US6967100B2, “Pancreatic islet cell growth factors” (The Walter and Eliza Hall Institute of Medical Research, priority 2000, dated 2005)

Columns and labels:
Type in all cases: cell-based
[1] = system: E15.5 CBA mouse fetal pancreas cells; test: Cystic colony formation of E15.5 fetal mouse pancreas cells in laminin-1 overlay culture
Method: Pancreata were dissected from embryonic day (E)15.5 CBA mouse fetuses and dissociated into single cells as described (Jiang et al., 1999). Briefly, dissected pancreas was digested with trypsin/EDTA for 15 minutes at 37° C. in a shaking water bath. Cells were counted in a haemocytometer and viability determined by trypan blue dye exclusion. Each fetal pancreas yielded 50,000 viable cells (48,509±11,299, n=14). Dissociated cells were plated in 8 well chamber slides (Nunc, Naperville, USA) at 7.5×10^4 cells/well in 0.3 ml AIM V medium supplemented with N-2 (1:100, Gibco BRL Life Technologies, Gaithersburg, USA), 500 UI/ml penicillin and 500 μg/ml streptomycin. Laminin-1 (160 μg/ml), purified from murine Engelbreth-Holm-Swarm tumor basement membrane (Becton Dickinson Labware, Bedford, USA), was overlayed on cells in the presence of various growth factors. Cultures were incubated in 10% CO2 90% air at 37° C., for up to 6 days. Recombinant human BMP 6 and BMP 5, recombinant human TGF-β1 and recombinant activin A were purchased from R&D Systems (Minneapolis, USA). These factors, dissolved at a concentration of 10 ng/μl in mouse tonicity phosphate buffered saline (PBS) containing 0.1% w/v bovine serum albumin (BSA), were added at the start of culture. Phase contrast images of colonies were photographed with Olympus IX70 digitized camera.
Colony formation was assessed at day 6 of culture. A colony was defined as a cellular sphere ≧30 μm in diameter, which contained more than 20 cells. The number of colonies per well was counted directly under a inverted microscope at ×10. Colony counts were performed using a blind design.

[2] = system: 13.5 dpc fetal mouse pancreas cells; test: Colony formation of 13.5 dpc fetal mouse pancreas cells cultured with BMPs and laminin-1; conditions: for proliferation or colony formation, candidate growth factors individually: 13.5 dpc fetal pancreas cells; for proliferation and colony formation of fetal pancreas cells: in the presence (but not absence) of laminin-1, four days culture
Method: Dissociated fetal pancreas cells were prepared from 13.5 dpc CBA mice. Pregnant mice at 13.5 dpc were killed by cervical dislocation and fetuses collected into ice cold sterile mouse tonicity phosphate-buffered saline (MTPBS). Fetal pancreata were harvested under an Olympus dissection microscope into RPMI 1640 medium and dissociated in a shaking water bath at 37° C. for 11 mins in Ca^2+/Mg^2+-free PBS containing 0.5% v/v trypsin/EDTA as described for testis by Bucci et al. (1986). After dissociation, trypsin was inactivated by addition of 8% w/v bovine serum albumin (BSA, fraction V) (Sigma, St. Louis, USA). The tissue was aspirated several times in a pipette, passed through a 27 gauge needle to make a single cell suspension and then rinsed in 10 μg/ml DNAse I (Promega, Madison, USA) in RPMI 1640 for 10 mins to reduce cellular aggregates. Cell suspensions were filtered through a 70-100 μm steel mesh, centrifuged at 400×g for 5 mins and the supernatant discarded. The cell pellet was resuspended in HYBRIDOMA medium and stored on ice. Cells were counted under a haemocytometer and viability was determined by exclusion of 0.2% v/v trypan blue dye. Pancreatic cells were plated in 8 chamber slides (Nunc) at 1.5×10^4 cells/well in 0.3 ml HYBRIDOMA medium 500 UI/ml penicillin and 500 μg/ml streptomycin. The cells were cultured in 10% v/v CO2, 90% v/v air at 37° C. with 100% humidity for four days in the presence of factors such as laminin-1 and BMPs.
After four days in culture, cells were washed twice with warm MT-PBS and fixed with a 4% v/v paraformaldehye for 10 mins. In some cases, 100 μM BrdU was added to label proliferating cells 12 hours before fixation and detection with monoclonal antibody to BrdU and FITC-labelled rabbit anti-mouse immunoglobulin. For immunoperoxidase staining, endogenous peroxidase was blocked by 3% v/v H2O2 in methanol for 8 mins and, prior to addition of primary antibody, non-specific protein binding was blocked by incubation for at least 30 mins in MTPBS containing 2% w/v BSA or 2% v/v normal rabbit serum. Controls were performed by replacing primary antibody with pre-immune serum from the appropriate species. Tissue sections or cells were incubated with primary antibodies for 90 min RT, followed by three thorough washes with MTPBS. For immunoperoxidase staining, horseradish peroxidase-conjugated rabbit anti-guinea pig, swine anti-rabbit or rabbit anti-mouse immunoglobulins (Dako) diluted 1:80 were added for 30 mins at RT followed by thorough washes; colour was developed with 3,3′-diaminobenzidine/H2O2 for 4-8 mins and slides counterstained with haematoxylin.
A pancreatic cell colony was defined as a spherical collection of 20 cells. Colonies were counted under a×10 power objective with an eyepiece graticule.

[3] = system: E15.5 CBA mouse fetal pancreas cells; test: Cystic colony formation of E15.5 fetal mouse pancreas cells in laminin-1 overlay culture; conditions: BMP alone
C2C12 myoblasts = test: C2C12 cell BMP bioassay (transformation of myoblasts into alkaline phosphatase-containing osteoblasts); conditions: for BMP activity of conditioned medium (alkaline phosphatase activity of C2C12 cells): conditioned medium of stably transfected CHO cells, compared to medium of untransfected CHO cells
Method: BMP activity was measured in the C2C12 cell bioassay, in which BMPs transform C2C12 myoblasts into alkaline phosphatase-containing osteoblasts (Katagiri et al., 1994). Briefly, CHO cells were plated at a density of around 5×10^6 per 75 cm^2 flask in serum-free HYBRIDOMA medium (Gibco BRL Life Technology) (SFHM) containing 10% v/v FCS. Once the cells had reached confluency, the medium was removed, the cells washed twice with SFHM and 10 ml of SFHM then added to each flask. The cells were cultured for four days and the conditioned medium collected, filtered through a 2 micron filter and stored at 4° C.
2×10^3 C2C12 cells were plated into each well of a 96-well tissue culture plate in DME/10% v/v FCS. Twenty-four hours later, the medium was removed and replaced with 100 μl SFHM/1% v/v FCS. 50 μl of each conditioned medium was added in duplicate to the top row of the 96-well plate and the volume of these wells then made up to 200 μl. Using a multi-channel pipette, 100 μl from each well was then serially transferred to subsequent rows thus diluting the conditioned medium 2-fold with each transfer. After incubation for five days, the media were discarded and the cells washed with normal saline. Cells were lysed for 10 mins at room temperature (RT) in 100 μl 0.5% v/v TritonX-100 and 100 mM diethanolamine (pH 9.5) in normal saline. To each well was then added an aqueous solution containing 10 mM diethanolamine, 1 mg/ml p-nitrophenyl phosphate (PNPP) and 0.5 mM MgCl2. The yellow reaction product catalyzed by alkaline phosphatase was allowed to develop for 10-60 mins before reading absorption at 415 nm.

| Molecule | proliferation or colony formation, candidate growth factors individually [2] | BMP activity of conditioned medium (alkaline phosphatase activity of C2C12 cells) (C2C12 myoblasts) | proliferation and colony formation of fetal pancreas cells [2] | other results |
| --- | --- | --- | --- | --- |
| Activin A: recombinant activin A from R&D Systems (protein, UniProt P08476 311-426, looked up) Inhibin beta A chain: GLECDGKVNICCKKQFFVSFKDIGWNDWIIAPSGYHANYCEGECPSHIAGTSGSSLSFHSTVINHYRMRGHSPFANLKSCCVPTKLRPMSMLYYDDGQNIIKKDIQNMIVEECGCS | unable to promote proliferation or colony formation | – | – | BMP 6-induced colony formation ([1]; 100 ng/ml against BMP 6 10 ng/ml, laminin-1 160 μg/ml, p<0.01 (FIG. 10B)): antagonized; colony formation relative to laminin-1 alone ([1]; 100 ng/ml, laminin-1 160 μg/ml (FIG. 10A)): suppressed colony formation to levels below that observed with laminin-1 alone |
| KGF: candidate growth factor (protein, UniProt P21781 32-194, looked up) Fibroblast growth factor 7: CNDMTPEQMATNVNCSSPERHTRSYDYMEGGDIRVRRLFCRTQWYLRIDKRGKVKGTQEMKNNYNIMEIRTVAVGIVAIKGVESEFYLAMNKEGKLYAKKECNEDCNFKELILENHYNTYASAKWTHNGGEMFVALNQKGIPVRGKKTKKEQKTAHFLPMAIT | unable to promote proliferation or colony formation | – | – | – |
| betacellulin: candidate growth factor (protein, UniProt P35070 32-111, looked up) Betacellulin: DGNSTRSPETNGLLCGDPEENCAATTTQSKRKGHFSRCPKQYKHYCIKGRCRFVVAEQTPSCVCDEGYIGARCERVDLFY | unable to promote proliferation or colony formation | – | – | – |
| BMP 5: recombinant human BMP 5 purchased from R&D Systems (protein, UniProt P22003 317-454, looked up) Bone morphogenetic protein 5: AANKRKNQNRNKSSSHQDSSRMSSVGDYNTSEQKQACKKHELYVSFRDLGWQDWIIAPEGYAAFYCDGECSFPLNAHMNATNHAIVQTLVHLMFPDHVPKPCCAPTKLNAISVLYFDDSSNVILKKYRNMVVRSCGCH | – | – | – | colony formation in the absence of laminin-1 [3]: no effect; concentration of maximal stimulation of colony formation ([1]; laminin-1 160 μg/ml, day 6, fewer colonies at higher concentrations): 100 ng/mL; formation of cystic colonies in the presence of laminin-1 ([1]; laminin-1 160 μg/ml, up to 6 days): synergized with laminin-1 to promote formation of cystic colonies |
| BMP 4/4: BMP 4 homodimer, epitope-tagged recombinant mouse BMP in CHO cell conditioned medium (protein, UniProt P21275 293-408, looked up, epitope tag) Bone morphogenetic protein 4: SPKHHPQRSRKKNKNCRRHSLYVDFSDVGWNDWIVAPPGYQAFYCHGDCPFPLADHLNSTNHAIVQTLVNSVNSSIPKACCVPTELSAISMLYLDEYDKVVLKNYQEMVVEGCGCR | – | significant activity | did not promote colony formation | – |
| BMP 4/7: BMP 4 and BMP 7 heterodimer, recombinant mouse, CHO cell conditioned medium (protein, UniProt P21275 293-408; P23359 292-430, looked up, heterodimer, BMP 4 and BMP 7 heterodimer, recombinant mouse, CHO cell conditioned medium) Bone morphogenetic protein 4: SPKHHPQRSRKKNKNCRRHSLYVDFSDVGWNDWIVAPPGYQAFYCHGDCPFPLADHLNSTNHAIVQTLVNSVNSSIPKACCVPTELSAISMLYLDEYDKVVLKNYQEMVVEGCGCR Bone morphogenetic protein 7: STGGKQRSQNRSKTPKNQEALRMASVAENSSSDQRQACKKHELYVSFRDLGWQDWIIAPEGYAAYYCEGECAFPLNSYMNATNHAIVQTLVHFINPDTVPKPCCAPTQLNAISVLYFDDSSNVILKKYRNMVVRACGCH | – | significant activity | stimulated fetal pancreas cells to proliferate and form colonies | relative BMP bioactivity (C2C12 myoblasts; FIG. 3, heterodimer versus homodimer): more active than 4/4 homodomers |
| BMP 4/6: BMP 4 and BMP 6 heterodimer, recombinant mouse, CHO cell conditioned medium (protein, UniProt P21275 293-408; P20722 372-510, looked up, heterodimer, BMP 4 and BMP 6 heterodimer, recombinant mouse, CHO cell conditioned medium) Bone morphogenetic protein 4: SPKHHPQRSRKKNKNCRRHSLYVDFSDVGWNDWIVAPPGYQAFYCHGDCPFPLADHLNSTNHAIVQTLVNSVNSSIPKACCVPTELSAISMLYLDEYDKVVLKNYQEMVVEGCGCR Bone morphogenetic protein 6: SASSRRRQQSRNRSTQSQDVSRGSGSSDYNGSELKTACKKHELYVSFQDLGWQDWIIAPKGYAANYCDGECSFPLNAHMNATNHAIVQTLVHLMNPEYVPKPCCAPTKLNAISVLYFDDNSNVILKKYRNMVVRACGCH | – | significant activity | did not promote colony formation | – |
| BMP 6/6: recombinant mouse BMP 6, myc epitope tagged, CHO cell conditioned medium; called BMP 6 in b118 (protein, UniProt P20722 372-510, looked up, myc epitope tag, called BMP 6) Bone morphogenetic protein 6: SASSRRRQQSRNRSTQSQDVSRGSGSSDYNGSELKTACKKHELYVSFQDLGWQDWIIAPKGYAANYCDGECSFPLNAHMNATNHAIVQTLVHLMNPEYVPKPCCAPTKLNAISVLYFDDNSNVILKKYRNMVVRACGCH | – | – | stimulated fetal pancreas cells to proliferate and form colonies | – |
| BMP 7/7: BMP 7 homodimer, epitope-tagged recombinant mouse BMP in CHO cell conditioned medium (protein, UniProt P23359 292-430, looked up, epitope tag) Bone morphogenetic protein 7: STGGKQRSQNRSKTPKNQEALRMASVAENSSSDQRQACKKHELYVSFRDLGWQDWIIAPEGYAAYYCEGECAFPLNSYMNATNHAIVQTLVHFINPDTVPKPCCAPTQLNAISVLYFDDSSNVILKKYRNMVVRACGCH | – | significant activity | stimulated fetal pancreas cells to proliferate and form colonies | – |
